The target of series [1] is T1, 284B.
T1 construct: also called LHD284 B; LHD284 chainB
T1 chain: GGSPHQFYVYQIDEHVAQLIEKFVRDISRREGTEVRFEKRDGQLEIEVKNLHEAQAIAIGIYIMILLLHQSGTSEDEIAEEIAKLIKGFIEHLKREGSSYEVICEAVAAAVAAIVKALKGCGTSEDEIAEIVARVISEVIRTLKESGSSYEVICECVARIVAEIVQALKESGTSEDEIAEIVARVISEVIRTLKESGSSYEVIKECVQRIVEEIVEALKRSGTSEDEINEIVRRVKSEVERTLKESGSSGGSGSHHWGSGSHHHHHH
Nature of the series: BLI, steady state fit. The procedure:
(§1) Biolayer interferometry experiments were performed on an OctetRED96 BLI system (ForteBio, Menlo Park, CA). Streptavidin coated biosensors were first equilibrated for at least 10 minutes in Octet buffer (10 mM HEPES pH 7.4, 150 mM NaCl, 3 mM EDTA, 0.05% Surfactant P20) supplemented with 1 mg/ml Bovine Serum Albumin (SigmaAldrich). Enzymatically biotinylated designs were immobilized onto the biosensors by dipping the biosensors into a solution with 10-50 nM protein for 30-120 s. This was followed by dipping in fresh octet buffer to establish a baseline for 120 s. Titration experiments were performed at 25° C. while rotating at 1,000 r.p.m. Association of designs was allowed by dipping biosensors in solutions containing designed protein diluted in octet buffer until equilibrium was approached followed by dissociation by dipping the biosensors into fresh buffer solution in order to monitor the dissociation kinetics. Steady-state and global kinetic fits were performed using the manufacturer's software (Data Analysis 9.1) assuming a 1:1 binding model.
For orientation: BLI is a label-free optical method that tracks binding on a fibre tip over time.

Series [2] has as its target T1, 284B. Nature of the series: BLI, global kinetic fit, 1:1 model. The procedure:
as §1

Series [3] concerns the target T2, 298B.
T2 construct: also called LHD298 B; LHD298 chainB
T2 chain: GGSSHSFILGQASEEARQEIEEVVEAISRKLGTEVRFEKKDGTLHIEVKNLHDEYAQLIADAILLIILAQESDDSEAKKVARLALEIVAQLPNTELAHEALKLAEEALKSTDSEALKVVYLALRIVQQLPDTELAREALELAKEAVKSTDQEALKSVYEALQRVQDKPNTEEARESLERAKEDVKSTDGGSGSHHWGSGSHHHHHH
Nature of the series: BLI, steady state fit. How it is done: as §1

Series [4] concerns the target T2, 298B. In words: BLI, global kinetic fit, 1:1 model. The procedure: as §1
For series [5], the target named is T3, 275B.
T3 construct: also called LHD275 B; LHD275B
T3 chain: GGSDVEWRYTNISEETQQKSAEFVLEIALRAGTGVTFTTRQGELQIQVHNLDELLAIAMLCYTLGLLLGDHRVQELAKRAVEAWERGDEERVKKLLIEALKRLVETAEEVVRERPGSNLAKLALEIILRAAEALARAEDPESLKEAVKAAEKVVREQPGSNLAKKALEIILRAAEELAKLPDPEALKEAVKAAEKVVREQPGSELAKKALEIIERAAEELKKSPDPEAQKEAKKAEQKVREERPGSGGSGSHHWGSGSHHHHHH
Nature of the series: SEC of mixed components; tetramer (control pentamer) listed in Table 6, neighbours in the chain. How it is done:
(§2) Complexes and individual components were diluted in 20 mM Tris pH 8.0, 100 mM NaCl. After o/n equilibration of the mixtures at room temperature or 4 degrees C., 500 ul of sample was injected onto a Superdex™ 200 10/300 increase GL (dimers, linear assemblies) or Superose™ 6 increase 10/300 GL (symmetric assemblies) (all columns from GE healthcare) using the absorbance at 230 nm or 473 nm (for GFP tagged components) as read-out. Dimers were mixed at monomer concentrations of 5 μM or higher. Trimer and ABCD tetramer mixtures contained 5 μM of the bivalent connector, and 7.5 μM of each terminal cap (lower absolute concentrations with the same ratios were used for some trimers). ABCA tetramer mixtures contained 5 μM per bivalent connector and 15 μM terminal cap. The hexamer mixture contained 3 μM of components C and D, 3.6 μM of B and E, and 4.4 μM of A and F. The branched assembly shown in FIG. 4A contained 2.8 μM of the trivalent connector and 4 μM of each cap. For the exchange experiment shown in FIG. 5A, the ABC trimer was preincubated at concentrations of 6 μM B and 9 μM each of A and C. C′ was then added to reach a final concentration of 2 μM B, 3 μM each of A and C, and 6 μM C′.

For series [6], the target named is T4, DF202.
T4 construct: Bivalent connector
T4 chain: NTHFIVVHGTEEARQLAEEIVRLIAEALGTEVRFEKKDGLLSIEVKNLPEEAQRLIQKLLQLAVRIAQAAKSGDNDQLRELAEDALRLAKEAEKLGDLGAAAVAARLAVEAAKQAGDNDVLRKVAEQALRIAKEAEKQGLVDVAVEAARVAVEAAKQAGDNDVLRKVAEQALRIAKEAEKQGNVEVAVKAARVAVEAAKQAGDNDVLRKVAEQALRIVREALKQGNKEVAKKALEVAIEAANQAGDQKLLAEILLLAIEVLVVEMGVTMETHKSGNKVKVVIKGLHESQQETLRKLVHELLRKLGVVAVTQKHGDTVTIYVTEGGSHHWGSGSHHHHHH
In words: SEC of mixed components; trimer listed in Table 6.

The target in series [7] is T5, DFB0.
T5 construct: Bivalent connector
T5 chain: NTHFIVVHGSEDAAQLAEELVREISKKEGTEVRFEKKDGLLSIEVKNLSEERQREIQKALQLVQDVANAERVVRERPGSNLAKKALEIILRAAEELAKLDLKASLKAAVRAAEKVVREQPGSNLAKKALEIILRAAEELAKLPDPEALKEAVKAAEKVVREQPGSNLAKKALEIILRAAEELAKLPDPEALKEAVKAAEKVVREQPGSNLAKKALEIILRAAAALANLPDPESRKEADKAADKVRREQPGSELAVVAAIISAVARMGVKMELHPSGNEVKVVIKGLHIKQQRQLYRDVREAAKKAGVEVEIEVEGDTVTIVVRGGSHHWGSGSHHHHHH
In words: SEC of mixed components; linear tetramer listed in Table 6, neighbours in the chain.

The target of series [8] is T6, DFB-1.
T6 construct: Bivalent connector
T6 chain: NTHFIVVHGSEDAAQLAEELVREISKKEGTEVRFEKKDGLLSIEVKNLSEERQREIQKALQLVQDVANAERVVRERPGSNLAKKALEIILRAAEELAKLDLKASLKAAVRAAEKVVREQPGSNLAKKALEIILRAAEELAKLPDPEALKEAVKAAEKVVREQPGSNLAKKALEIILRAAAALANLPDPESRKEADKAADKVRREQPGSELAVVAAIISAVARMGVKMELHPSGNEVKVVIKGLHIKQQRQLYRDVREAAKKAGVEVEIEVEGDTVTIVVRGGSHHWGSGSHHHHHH
The description is as above.

Series [9] deals with T7, DF206.
T7 construct: Bivalent connector
T7 chain: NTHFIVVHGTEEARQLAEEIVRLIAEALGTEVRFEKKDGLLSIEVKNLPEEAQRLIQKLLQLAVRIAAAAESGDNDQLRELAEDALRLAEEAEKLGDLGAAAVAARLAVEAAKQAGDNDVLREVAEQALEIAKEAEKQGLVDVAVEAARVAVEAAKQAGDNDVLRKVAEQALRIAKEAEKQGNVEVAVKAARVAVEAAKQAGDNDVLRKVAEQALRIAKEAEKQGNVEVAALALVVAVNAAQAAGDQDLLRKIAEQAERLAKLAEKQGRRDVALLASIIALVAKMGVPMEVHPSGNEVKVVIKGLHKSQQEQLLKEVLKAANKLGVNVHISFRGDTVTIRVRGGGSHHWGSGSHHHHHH
In words: SEC of mixed components; tetramer (control pentamer) listed in Table 6, neighbours in the chain. How it is done: as §2

For series [10], the target named is T8, 278B.
T8 construct: also called LHD278 B; LHD278 chainB
T8 chain: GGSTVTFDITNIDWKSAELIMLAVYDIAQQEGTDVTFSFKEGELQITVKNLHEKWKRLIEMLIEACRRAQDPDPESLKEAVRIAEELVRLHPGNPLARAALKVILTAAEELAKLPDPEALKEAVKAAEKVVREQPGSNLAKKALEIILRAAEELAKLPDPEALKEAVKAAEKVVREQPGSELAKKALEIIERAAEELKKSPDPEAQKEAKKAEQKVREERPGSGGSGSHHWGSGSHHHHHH
In words: BLI, steady state fit. The procedure:
as §1

Series [11] deals with T8, 278B. Nature of the series: BLI, global kinetic fit, 1:1 model. How it is done: as §1
Series [12] concerns the molecule itself. Nature of the series: SEC titration of the protomer alone at several injection concentrations (Superdex 75, normalised A230); self-association.
For series [13], the target named is T3, 275B. Nature of the series: BLI, steady state fit. The procedure:
as §1

Series [14] deals with T3, 275B. In words: BLI, global kinetic fit, 1:1 model. How it is done:
as §1

The target of series [15] is T9, 289B.
T9 construct: also called LHD289 B; LHD289 chainB
T9 chain: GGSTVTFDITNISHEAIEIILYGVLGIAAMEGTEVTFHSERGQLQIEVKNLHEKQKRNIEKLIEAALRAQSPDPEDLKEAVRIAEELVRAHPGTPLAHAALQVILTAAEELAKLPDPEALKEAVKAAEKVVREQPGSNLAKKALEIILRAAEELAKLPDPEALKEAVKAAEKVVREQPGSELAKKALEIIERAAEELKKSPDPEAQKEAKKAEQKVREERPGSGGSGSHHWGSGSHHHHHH
Nature of the series: BLI, steady state fit. How it is done:
as §1

Series [16] addresses T9, 289B. In words: BLI, global kinetic fit, 1:1 model. How it is done:
as §1

B1: LHD284 chainA (designed binder)
chain: TDELLERLRQLFEELHERGTIIIVEVHINGERQTKYLILAPKEELKKHLERIREKIEREGSSEVEVKVTSGGTTWTFNEK
notes: also called LHD284A
A word on the Kd: it is a measure of binding affinity in units of concentration. A high value points to lower affinity. Usually koff stands for the first-order rate constant of dissociation. High values mean a short-lived complex, low ones a long-lived complex. Usually kon stands for a measure of how fast the partners come together. In series [1], B1 came in with a dissociation constant (Kd) of 97 nM. Besides, in [2], the dissociation constant Kd worked out at 8.9 nM, the koff turned out to be 0.0012 s⁻¹ and the association rate constant (kon) came to 130000 M⁻¹ s⁻¹.

B2: LHD298 chainA (designed binder)
chain: GRQEKVLKSIEETVRKMGVTMETHRSGNTVKVVIKGLHESQQEQLHKDVEETVQKEGVFVLVSHHGDTVTIQVYE
notes: also called LHD298A
Take B2: binding in [3] was put at a Kd of 16 nM. Further, in [4], the equilibrium dissociation constant (Kd) worked out at 3.5 nM, the koff stood at 0.00022 s⁻¹ and the kon was 64000 M⁻¹ s⁻¹.

B3: DF275A-1 (designed binder)
chain: HHHHHHGSGSGRQEKVLKSIEETVRKMGVEMLTFRAGKAVIVVIRGLHPEQAKQLLRDVSQTAHKQGVTVTLTFHGDVVFILVLVGASEEQQRAMQLLIQALARIIHEAKRRGVSEEQLKRMIEAAARLIEVLLKALEAAREGNTDEVREQLQRALEIVREIGLTAAVRLALLVVEAVATLAAKRGNTDAVREALEVALEIARESGTTEAVKLALEVVARVAIEAARRGNTDAVREALEVALEIARESGTTEAVKLALEVVARVAIEAARRGNTDAVREALAVAVKIALKSGTEEAFRLAKEVIKRVSDEAKKQGNEDAVKEAESFDAAAELILSLLKLFRELHERGTEIVVEVHINGRKTEIEVQGIDKRLLQIILEVIIEEIAREGPDKVEVNVHSGGQTWTFRYGGS
notes: Bivalent connector
On to B3, for which the binding result in series [5] is reported as “binds”.

B4: DFA0 (designed binder)
chain: TTNFHLINGSEEARQLIEKAVRAISKKEGTEVHFEKSDGTLEIRVKNLHEKREREIKKVIELILEVAAAERIVRERPGSNLAKKALEIILRAAEELAKADVDAALEAAVRAAEKVVREQPGSNLAKKALEIILRAAEELAKLPDPEALKEAVKAAEKVVREQPGSNLAKKALEIILRAAEELAKLPDPEALKEAVKAAEKVVREQPGSNLAKKALEIILRAAAALANLPDPESRKEADKAADKVRREQPGSELAVVAAIISAVARMGVKMELHPSGNEVKVVIKGLHIKQQRQLYRDVREAAKKAGVEVEIEVEGDTVTIVVRGGSHHWGSGSHHHHHH
notes: Bivalent connector
Turning to B4, the binding result in series [6], in series [7], in series [8] and in [9] was “binds” throughout.

B5: LHD278 chainA (designed binder)
chain: GRQEKVLKSIEETVRKMGVRMLTHRGGNAVIVVIEGLHPSQIKQLMQDVIKTAKKQGVTVTITVSGDIVVIMVVVGASDEEQEEARRLVQEIARALQEAKRKGANEEQLEQLLRELLERAEREG
notes: also called LHD278A
In turn, B5 yielded a Kd in series [10] of 3.4 nM. In series [11], binding was characterised by a dissociation constant (Kd) of 0.8 nM, the koff was 0.00022 s⁻¹ and the kon is 290000 M⁻¹ s⁻¹. Moreover, the binding result in series [12] is on record as “no binding (tested: 52.4 uM)”.

B6: LHD275 chainA (designed binder)
chain: GRQEKVLKSIEETVRKMGVEMLTFRAGNAVIVVIRGLHPEQAKQLLRDVSQTAHKQGVTVTLTFHGDVVFILVLVGASEEEQKHMQERIQELARIIHEAKRRGVSEEQLREIAEKMAKEIQEWG
notes: also called LHD275A
For B6, in series [13], binding was put at a Kd of 4.5 nM. For the same molecule, in series [14], the equilibrium dissociation constant (Kd) is 2.9 nM, the off-rate constant (koff) came to 0.00041 s⁻¹ and the kon was determined as 140000 M⁻¹ s⁻¹. In addition, the binding result in series [12] was “no binding (tested: 8.0 uM)”.

B7: LHD289 chainA (designed binder)
chain: GRQEKVLKSIEETVRKMGVTMLTHRHGNVVFVVILGLHKQQALQLLRDVHRTAHKQGVTLSITFSGDIVVIAVTVGASEEEKKEVRKIVKEIAKQLRHAETEEEAKEIVQRVIEEWQEEG
notes: also called LHD289A
In series [15], B7 had a dissociation constant (Kd) of 610 nM. In series [16], this molecule yielded a dissociation constant (Kd) of 1080 nM, a koff of 0.057 s⁻¹ and a kon of 53000 M⁻¹ s⁻¹.

These data come from patent US20240368233A1 (University of Washington, published 2024).
